In the supplement of paper PMC10724198 one finds protein stability index data, which are given here for 50 sequences.

± gives the standard deviation of the averaged measurements.

The test system of the data set is Saccharomyces cerevisiae. As to the kind of experiment: protein stability index of tFT-peptide fusion (C-terminal peptide) (PSI (0-1 scale)); higher = more stable (slower turnover). The note with it: temperature: 30 C. Here is the method:
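MPS profiling in S. cerevisiae of the yeast C-terminome library: the last 12 aa of each annotated ORF are fused to the C-terminus of a sfGFP-mCherry timer, after a GGGS linker. Cells are FACS-sorted into 8 mCherry/sfGFP bins and deep-sequenced. PSI runs from 0 (unstable) to 1 (stable); wild type and das1Δ backgrounds, two technical replicates each.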

[1] abbreviates: genetic background: das1 deletion.

For FNNILTKEMQKI [CLD1 C-terminal 12 aa], the protein stability index is, setting by setting: under setting [1], 0.701 ± 0.031; (genetic background: wild type) 0.717 ± 0.049.

As to FNVTKKSLTNHS [CDS1 C-terminal 12 aa], the protein stability index by setting is: under setting [1], 0.6978 ± 0.0048; (genetic background: wild type) 0.742 ± 0.049.

With FPVKSSPNAHTA [YLR334C C-terminal 12 aa], the protein stability index came out at 0.707 ± 0.018 under setting [1] and 0.687 ± 0.026 (genetic background: wild type).

As to FPWSHGTCIRGA [YOR376W C-terminal 12 aa], the protein stability index runs as follows: under setting [1], 0.696 ± 0.013; (genetic background: wild type) 0.688 ± 0.01.

Consider FQREQVAKGGLL [CHL4 C-terminal 12 aa], for which the protein stability index amounted to 0.717 ± 0.016 under setting [1] and 0.69 ± 0.057 (genetic background: wild type).

With FRRRLGDRFKKD [MRX7 C-terminal 12 aa], the protein stability index under setting [1] was found to be 0.6895 ± 0.0044 and the protein stability index (genetic background: wild type) came to 0.695 ± 0.017.

As to FSYIRSKQMQQK [MNE1 C-terminal 12 aa], the protein stability index runs as follows: under setting [1], 0.746 ± 0.031; (genetic background: wild type) 0.6666 ± 0.0065.

With FTNALKNMYFSA [YJR037W C-terminal 12 aa], the protein stability index reads like this: under setting [1], 0.709 ± 0.0094; (genetic background: wild type) 0.585 ± 0.019.

Consider FVYERMKWNFGI [LEU5 C-terminal 12 aa], for which the protein stability index was 0.7059 ± 0.0044 under setting [1] and 0.275 ± 0.025 (genetic background: wild type).

As for FWHEVVVFPIPN [YDR015C C-terminal 12 aa], the protein stability index runs as follows: under setting [1], 0.717 ± 0.017; (genetic background: wild type) 0.716 ± 0.062.

For GAGVVAAAAMLL [TIR1 C-terminal 12 aa], the protein stability index turned out to be 0.7182 ± 0.0061 under setting [1] and 0.713 ± 0.016 (genetic background: wild type).

With GAGWSGFKKVFK [GYL1 C-terminal 12 aa], the protein stability index turned out to be 0.692 ± 0.013 under setting [1] and 0.722 ± 0.042 (genetic background: wild type).

Turning to GAHDDMDNGDDW [LAS17 C-terminal 12 aa], the protein stability index under setting [1] was 0.689 ± 0.01 and the protein stability index (genetic background: wild type) was 0.663 ± 0.015.

GAIYVLQWANPT [YBR287W C-terminal 12 aa]: the protein stability index by setting is: under setting [1], 0.667 ± 0.025; (genetic background: wild type) 0.662 ± 0.061.

On to GATEKRKCAKPF [CSL4 C-terminal 12 aa], for which the protein stability index by setting is: under setting [1], 0.674 ± 0.033; (genetic background: wild type) 0.687 ± 0.029.

For GDDDIDDDDDMI [TVP15 C-terminal 12 aa], the protein stability index reads like this: under setting [1], 0.691 ± 0.023; (genetic background: wild type) 0.677 ± 0.023.

GEDEENTVDSQY [YOL131W C-terminal 12 aa] registered a protein stability index under setting [1] of 0.688 ± 0.015 and a protein stability index (genetic background: wild type) of 0.6803 ± 0.0017.

In the case of “GEDVLEGGCLLI [YIR023C-A C-terminal 12 aa]”, the protein stability index runs as follows: under setting [1], 0.708 ± 0.051; (genetic background: wild type) 0.727 ± 0.057.

Regarding GELSVDEKKKIY [ERV29 C-terminal 12 aa], the protein stability index turned out to be 0.6932 ± 0.00077 under setting [1] and 0.657 ± 0.041 (genetic background: wild type).

Sequence GFADLDNFMSSL [HAA1 C-terminal 12 aa] had a protein stability index under setting [1] of 0.686 ± 0.039 and a protein stability index (genetic background: wild type) of 0.689 ± 0.033.

GGFLSFGGGYDE [AIM25 C-terminal 12 aa]: the protein stability index is 0.712 ± 0.034 under setting [1] and 0.726 ± 0.013 (genetic background: wild type).

Consider GGFSTEFNSCDT [MLF3 C-terminal 12 aa], for which the protein stability index is 0.719 ± 0.019 under setting [1] and 0.721 ± 0.023 (genetic background: wild type).

As for GGGASSIVIEKI [ERG10 C-terminal 12 aa], the protein stability index by setting is: under setting [1], 0.697 ± 0.035; (genetic background: wild type) 0.694 ± 0.011.

In the case of GGQNSPGDMAVA [YDL199C C-terminal 12 aa], the protein stability index by setting is: under setting [1], 0.692 ± 0.011; (genetic background: wild type) 0.741 ± 0.068.

Take GHNDGDINVWTL [CAF4 C-terminal 12 aa]: the protein stability index reads like this: under setting [1], 0.7185 ± 0.0052; (genetic background: wild type) 0.7273 ± 0.0028.

With GIDLNSIKWSGH [NFS1 C-terminal 12 aa], the protein stability index turned out to be 0.718 ± 0.012 under setting [1] and 0.709 ± 0.012 (genetic background: wild type).

GINAGEIEIPEN [RPL12A C-terminal 12 aa] gave a protein stability index under setting [1] of 0.692 ± 0.0082 and a protein stability index (genetic background: wild type) of 0.698 ± 0.012.

Consider GIPEEFKEFTEV [MND1 C-terminal 12 aa], for which the protein stability index is, setting by setting: under setting [1], 0.7022 ± 0.0026; (genetic background: wild type) 0.7181 ± 0.0035.

Regarding GIPNLLLPPHLV [TRM112 C-terminal 12 aa], the protein stability index stood at 0.707 ± 0.014 under setting [1] and 0.691 ± 0.007 (genetic background: wild type).

Turning to GIVPGDCLQEYD [FUS1 C-terminal 12 aa], the protein stability index under setting [1] came out at 0.702 ± 0.0059 and the protein stability index (genetic background: wild type) came to 0.685 ± 0.016.

On to GKEHRFGLHIRS [DPH6 C-terminal 12 aa], for which the protein stability index under setting [1] came out at 0.6887 ± 0.0022 and the protein stability index (genetic background: wild type) came out at 0.698 ± 0.026.

Regarding GKLAEILKPVFQ [GRX2 C-terminal 12 aa], the protein stability index reads like this: under setting [1], 0.706 ± 0.011; (genetic background: wild type) 0.677 ± 0.0068.

Take GKQKQLLFHIGV [HEL2 C-terminal 12 aa]: the protein stability index turned out to be 0.6865 ± 0.0042 under setting [1] and 0.718 ± 0.035 (genetic background: wild type).

With GKQLLSPMGRAF [TKL2 C-terminal 12 aa], the protein stability index by setting is: under setting [1], 0.679 ± 0.022; (genetic background: wild type) 0.6529 ± 0.0014.

On to GLEHSDPFSTFY [DBF2 C-terminal 12 aa], for which the protein stability index was 0.71206 ± 0.0003 under setting [1] and 0.712 ± 0.025 (genetic background: wild type).

As to GLNEVTRLIKGL [HTS1 C-terminal 12 aa], the protein stability index under setting [1] turned out to be 0.695 ± 0.011 and the protein stability index (genetic background: wild type) is 0.641 ± 0.027.

As for GLRYDMVHKLIS [SLH1 C-terminal 12 aa], the protein stability index runs as follows: under setting [1], 0.688 ± 0.025; (genetic background: wild type) 0.212 ± 0.028.

For GMISKSLKIPKP [CHO1 C-terminal 12 aa], the protein stability index reads like this: under setting [1], 0.661 ± 0.0085; (genetic background: wild type) 0.698 ± 0.0082.

Consider GNIVSQDLLDLF [APL2 C-terminal 12 aa], for which the protein stability index under setting [1] was determined as 0.724 ± 0.034 and the protein stability index (genetic background: wild type) was 0.7 ± 0.012.

On to GPSVMCTLYLTF [ARE2 C-terminal 12 aa], for which the protein stability index by setting is: under setting [1], 0.5849 ± 0.0035; (genetic background: wild type) 0.59105 ± 0.00058.

As to GQALLDQFAKFK [LSC1 C-terminal 12 aa], the protein stability index came out at 0.721 ± 0.058 under setting [1] and 0.687 ± 0.021 (genetic background: wild type).

As to GSNELLSILHRK [DCP2 C-terminal 12 aa], the protein stability index reads like this: under setting [1], 0.73 ± 0.018; (genetic background: wild type) 0.694 ± 0.059.

Consider GSSVPLDLTLFT [VRP1 C-terminal 12 aa], for which the protein stability index stood at 0.728 ± 0.012 under setting [1] and 0.714 ± 0.0093 (genetic background: wild type).

Consider GSVCFIMDYFTG [VPS62 C-terminal 12 aa], for which the protein stability index was 0.706 ± 0.013 under setting [1] and 0.677 ± 0.015 (genetic background: wild type).

For the sequence GSYATRAYGQKK [FDH1 C-terminal 12 aa], the protein stability index runs as follows: under setting [1], 0.694 ± 0.011; (genetic background: wild type) 0.688 ± 0.018.

As to GWDRLVEARSQI [EMW1 C-terminal 12 aa], the protein stability index by setting is: under setting [1], 0.7268 ± 0.0039; (genetic background: wild type) 0.708 ± 0.027.

Regarding HAERERENMIYD [YGL108C C-terminal 12 aa], the protein stability index reads like this: under setting [1], 0.7122 ± 0.0035; (genetic background: wild type) 0.695 ± 0.029.

Take HAQKRVSNASAR [SKI6 C-terminal 12 aa]: the protein stability index is, setting by setting: under setting [1], 0.6983 ± 0.0028; (genetic background: wild type) 0.6988 ± 0.0036.

Regarding HCLSNSASHSCG [YGR018C C-terminal 12 aa], the protein stability index came out at 0.675 ± 0.014 under setting [1] and 0.64 ± 0.014 (genetic background: wild type).

Take HFNSSSPQKVEF [LSM4 C-terminal 12 aa]: the protein stability index by setting is: under setting [1], 0.721 ± 0.012; (genetic background: wild type) 0.738 ± 0.03.
